Laboratory results: PMC4570271, “Resolution of structure of PIP5K1A reveals molecular mechanism for its regulation by dimerization and dishevelled” (Nature Communications, 2015)

T1: zebrafish PIP5K1A kinase catalytic domain (residues 49-431), wild type (zebrafish, UniProt Q503I3 49-431)
T1 chain: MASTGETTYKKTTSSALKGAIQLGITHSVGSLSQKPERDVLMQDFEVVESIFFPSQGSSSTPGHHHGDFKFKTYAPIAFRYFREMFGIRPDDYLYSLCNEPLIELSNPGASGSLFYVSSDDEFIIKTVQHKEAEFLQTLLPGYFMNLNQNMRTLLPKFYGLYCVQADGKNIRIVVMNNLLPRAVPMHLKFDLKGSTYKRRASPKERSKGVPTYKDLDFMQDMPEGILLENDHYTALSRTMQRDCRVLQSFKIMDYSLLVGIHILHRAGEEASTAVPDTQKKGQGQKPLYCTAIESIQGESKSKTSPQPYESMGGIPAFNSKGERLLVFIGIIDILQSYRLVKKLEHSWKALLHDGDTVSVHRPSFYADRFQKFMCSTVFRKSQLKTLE

B1: zebrafish PIP5K1A kinase catalytic domain (residues 49-431), wild type (domain or fragment)
chain: T1 chain
notes: kinase catalytic domain of zebrafish PIP5K1Aα, residues 49-431; C-terminal 'Leu-Glu' that precedes the His6 tag; Dimer by SEC/MALLS and in the crystal; also called zPIP5K1A; PIP5K1A kinase domain; not shown: His6, C-terminal, kept
B2: GST-tagged DIX domain of mouse DVL1 (residues 1-106) with Y17D (domain or fragment, UniProt P51141 1-106, looked up)
chain: MAETKIIYHMDEEETPDLVKLPVAPERVTLADFKNVLSNRPVHAYKFFFKSMDQDFGVVKEEIFDDNAKLPCFNGRVVSWLVLAEGAHSDAGSQGTDSHTDLPPPL
notes: DIX domain of mouse DVL1, residues 1-106, Y17D to eliminate DIX aggregation; A longer construct 1-200 (DIX-L) is named in the methods but tied to no experiment; also called DVL DIX; GST-DVL; source: E. coli, purified (glutathione-agarose beads, size-exclusion chromatography)

How the values were obtained:
[1] = target: the molecule itself; test: SEC-MALS; Superdex S-200 10/30 HR; 10 mM HEPES (pH 7.3), 300 mM NaCl, 5% glycerol, 0.01% TX-100; 0.5 ml/min
[2] = target: B2; test: cell-based or functional assay
[3] = target: T1, zebrafish PIP5K1A kinase catalytic …; test: ITC
[4] = target: T2, zebrafish PIP5K1A kinase catalytic domain, triple D84R/L86A/V291A (DLV) mutant (zebrafish, UniProt Q503I3 49-431, D84R | L86A | V291A); test: pull-down; GST-DIX (or GST) 0.5 μg and His-tagged PIP5K1 0.5 μg in 200 μl of 10 mM HEPES (pH 7.4), 150 mM NaCl, 0.2% Triton, 0.01% SDS, 3 mM dithiothreitol, 10% glycerol; 4 °C overnight; glutathione beads; western blotting; settings: both partners purified
T2 construct: kinase catalytic domain of zebrafish PIP5K1Aα, residues 49-431; C-terminal 'Leu-Glu' that precedes the His6 tag; Monomeric by SEC/MALLS; also called monomeric mutant DLV; TM-PIP5K; source: E. coli BL21-CodonPlus(DE3)-RIL, purified in the same way as the wild-type protein; not shown: His6, C-terminal, kept

[5] = target: B1; test: as above; settings: both partners purified

| fold activation of the lipid kinase activity by DIX [2] [fold] | Kd [3] [nM] | binding result [4] | binding result [5] | Binder | stoichiometry N [1] |
| --- | --- | --- | --- | --- | --- |
| 3 |  |  |  | B1 | 2 |
|  | 1200 | binds | binds | B2 |  |
